For assay [1], the target named is HIV-1LAI envelope gp120 labeled with radioactive iodine (HIV-1 LAI) (UniProt P03377). The experiment in a line: 125I-gp120, peptide array.
In assay [2] the target is HIV-1LAI envelope gp120 labeled with radioactive iodine (HIV-1 LAI), P03377. The experiment in a line: 125I-gp120, peptide array.

Where “and” joins values, the source holds several entries; their conditions need not be identical. Identical values can stand only once.

With STRL33 29-46 (peptide), the counts minus background (counts per 20 min) in assay [1] is 534 and 634.
As for STRL33 61-78 (peptide), in assay [1], the counts minus background (counts per 20 min) is 412 and 348.
Regarding STRL33 133-150 (peptide), the counts minus background (counts per 20 min) in assay [1] is 702 and 568.
For CCR5 241-258 (peptide), in assay [1], the counts minus background (counts per 20 min) came out at 214.
STRL33 297-314 (peptide): the counts minus background (counts per 20 min) in assay [1] is 144 and 82.5.
Regarding CCR5 165-182 (peptide), the counts minus background (counts per 20 min) in assay [1] came to 98.
Same read-out and setting: under CCR5 105-122 (peptide) stands 80; under STRL33 309-326 (peptide), 112 and 122.
As for CCR5 161-178 (peptide), the counts minus background (counts per 20 min) in assay [1] came to 118.
Turning to CCR5 221-238 (peptide), the counts minus background (counts per 20 min) in assay [1] turned out to be 102.
With STRL33 113-130 (peptide), in assay [1], the counts minus background (counts per 20 min) is 744 and 908.
In the case of CCR5 325-342 (peptide), in assay [1], the counts minus background (counts per 20 min) was 100.
Same read-out and setting: under STRL33 105-122 (peptide) stands 500 and 408; under CCR5 237-254 (peptide), 121; under STRL33 41-58 (peptide), 570 and 284.
On the same count and under the same terms, as for CCR5 201-218 (peptide), the figure is 180; as for STRL33 109-126 (peptide), 352 and 510.
Turning to STRL33 33-50 (peptide), the counts minus background (counts per 20 min) in assay [1] was 606 and 372.
Take FLTGIVGNGLVILVMGYQ (modifications not checked) [CXCR4 49-66]: the counts minus background (counts per 20 min) in assay [2] is 246.
With YSIIFLTGIVGNGLVILV (modifications not checked) [CXCR4 45-62], in assay [2], the counts minus background (counts per 20 min) is 123.
The same measure, in the same setting: as for IVGNGLVILVMGYQKKLR (modifications not checked) [CXCR4 53-70], the figure is 238.

For the origin of these results see patent US7304127.
